The values that follow come from US20040191240A1 (published 2004).

The assay addresses T1, amino-terminally FLAG-tagged human p75 (human, UniProt P08138 29-427).
T1 construct: also called FLAG-tagged p75; FLAG-p75; not shown: FLAG tag at the amino terminus
T1 sequence: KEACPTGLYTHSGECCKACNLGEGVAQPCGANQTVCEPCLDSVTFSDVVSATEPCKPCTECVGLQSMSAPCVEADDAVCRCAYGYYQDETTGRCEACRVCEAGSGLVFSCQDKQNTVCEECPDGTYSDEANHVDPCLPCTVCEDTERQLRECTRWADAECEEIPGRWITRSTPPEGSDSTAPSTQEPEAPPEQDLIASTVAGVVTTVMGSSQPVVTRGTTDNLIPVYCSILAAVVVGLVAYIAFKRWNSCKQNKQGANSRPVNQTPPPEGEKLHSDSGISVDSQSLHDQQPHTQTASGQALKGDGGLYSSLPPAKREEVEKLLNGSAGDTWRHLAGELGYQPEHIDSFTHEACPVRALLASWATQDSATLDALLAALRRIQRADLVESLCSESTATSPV
Description: competition: Pep5 at several concentrations against 1 uM GST-Rho GDI for immunoprecipitated p75.

B1: Pep5 (peptide)
peptide: CFFRGGFFNHNPRYC
notes: Chemically synthesized 15-residue peptide; also called peptide ligand to the p75 HD
B1: the binding result is given as “binds”.
